Target: 3TBP-CTPR6-foldon
Assay: co-sedimentation; co-precipitation assay: 10 μM hTNKS2 ARC1–3 mixed with an equal volume of CTPR protein (fixed or increasing concentrations) in 50 mM Tris-HCl, 150 mM NaCl, 0.5 mM TCEP, pH 7.3; 1 h at room temperature, 20 000g 30 min; supernatant and pellet on SDS-PAGE, band densities give the stoichiometry in the pellet

B1: Tankyrase-2 Ankyrin Repeat Clusters 1-3 (residues 2-485) (domain or fragment)
chain: SGRRCAGGGAACASAAAEAVEPAARELFEACRNGDVERVKRLVTPEKVNSRDTAGRKSTPLHFAAGFGRKDVVEYLLQNGANVQARDDGGLIPLHNACSFGHAEVVNLLLRHGADPNARDNWNYTPLHEAAIKGKIDVCIVLLQHGAEPTIRNTDGRTALDLADPSAKAVLTGEYKKDELLESARSGNEEKMMALLTPLNVNCHASDGRKSTPLHLAAGYNRVKIVQLLLQHGADVHAKDKGDLVPLHNACSYGHYEVTELLVKHGACVNAMDLWQFTPLHEAASKNRVEVCSLLLSYGADPTLLNCHNKSAIDLAPTPQLKERLAYEFKGHSLLQAAREADVTRIKKHLSLEMVNFKHPQTHETALHCAAASPYPKRKQICELLLRKGANINEKTKEFLTPLHVASEKAHNDVVEVVVKHEAKVNALDNLGQTSLHRAAYCGHLQTCRLLLSYGCDPNIISLQGFTALQMGNENVQQLLQEGI
  stoichiometry N: 2
